According to article PMC11687654:

Columns and labels:
[1] = target: TDP-43mutRRM-flag (pcDNA3.1 construct) (UniProt Q13148); test: AlphaScreen or HTRF; proximity AlphaLISA on lysates of co-transfected HEK293FT cells, 72 hr after transfection; anti-FLAG acceptor beads, biotinylated Ataxin-2 antibody and streptavidin donor beads; room temperature
[2] = target: TDP-43-flag (pcDNA3.1 construct) (UniProt Q13148); test: as above
Chain of TDP-43-flag (pcDNA3.1 construct) (Q13148 whole entry): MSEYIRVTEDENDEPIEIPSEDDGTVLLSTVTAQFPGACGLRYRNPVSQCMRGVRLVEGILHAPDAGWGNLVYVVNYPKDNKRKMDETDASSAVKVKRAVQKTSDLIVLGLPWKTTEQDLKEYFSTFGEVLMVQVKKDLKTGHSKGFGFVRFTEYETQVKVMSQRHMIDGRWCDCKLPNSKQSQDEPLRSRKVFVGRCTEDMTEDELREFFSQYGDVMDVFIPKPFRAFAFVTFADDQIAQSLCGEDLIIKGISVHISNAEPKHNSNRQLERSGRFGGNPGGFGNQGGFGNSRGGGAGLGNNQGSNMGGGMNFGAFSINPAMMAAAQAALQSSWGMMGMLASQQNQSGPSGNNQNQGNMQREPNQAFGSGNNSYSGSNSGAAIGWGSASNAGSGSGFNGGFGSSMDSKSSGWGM

Chain of Ataxin-2 (ATXN2, pcDNA3.1 construct) (Q99700 whole entry): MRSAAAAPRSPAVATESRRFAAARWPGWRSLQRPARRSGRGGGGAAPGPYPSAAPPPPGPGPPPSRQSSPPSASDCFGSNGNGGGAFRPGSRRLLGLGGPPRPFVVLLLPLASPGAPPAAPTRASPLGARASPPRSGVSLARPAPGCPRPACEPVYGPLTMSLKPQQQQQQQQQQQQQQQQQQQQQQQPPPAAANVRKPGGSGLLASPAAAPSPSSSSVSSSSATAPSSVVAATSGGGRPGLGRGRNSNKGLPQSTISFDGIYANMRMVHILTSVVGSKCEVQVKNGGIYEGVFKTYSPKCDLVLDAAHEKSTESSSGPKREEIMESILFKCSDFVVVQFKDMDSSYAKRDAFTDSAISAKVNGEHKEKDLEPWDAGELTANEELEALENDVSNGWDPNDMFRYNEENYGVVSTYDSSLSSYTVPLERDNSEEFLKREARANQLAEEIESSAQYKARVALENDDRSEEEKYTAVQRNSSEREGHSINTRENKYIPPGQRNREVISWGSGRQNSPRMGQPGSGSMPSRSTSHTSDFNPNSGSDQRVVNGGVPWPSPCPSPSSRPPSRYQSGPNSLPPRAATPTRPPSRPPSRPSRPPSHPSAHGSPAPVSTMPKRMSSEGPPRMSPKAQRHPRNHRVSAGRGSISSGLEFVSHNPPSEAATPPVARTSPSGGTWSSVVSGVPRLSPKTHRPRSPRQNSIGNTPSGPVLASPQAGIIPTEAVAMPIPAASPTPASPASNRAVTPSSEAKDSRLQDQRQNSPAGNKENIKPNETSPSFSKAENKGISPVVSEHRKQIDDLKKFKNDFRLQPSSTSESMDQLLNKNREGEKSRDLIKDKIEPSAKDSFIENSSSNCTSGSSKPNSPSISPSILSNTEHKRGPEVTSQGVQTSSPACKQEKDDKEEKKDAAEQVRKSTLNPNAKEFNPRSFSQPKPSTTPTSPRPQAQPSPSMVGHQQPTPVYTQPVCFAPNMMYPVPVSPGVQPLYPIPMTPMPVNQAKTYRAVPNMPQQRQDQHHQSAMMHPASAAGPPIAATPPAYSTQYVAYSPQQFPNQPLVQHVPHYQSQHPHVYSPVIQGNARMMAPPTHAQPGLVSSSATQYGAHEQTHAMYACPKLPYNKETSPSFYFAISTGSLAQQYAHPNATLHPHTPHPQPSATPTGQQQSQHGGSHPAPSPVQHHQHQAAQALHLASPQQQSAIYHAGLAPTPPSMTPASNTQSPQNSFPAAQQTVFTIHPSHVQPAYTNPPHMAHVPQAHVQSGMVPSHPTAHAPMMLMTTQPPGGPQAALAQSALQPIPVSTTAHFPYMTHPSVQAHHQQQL
Chain of TDP-43mutRRM-flag (pcDNA3.1 construct) (Q13148 whole entry): as the sequence (Q13148 whole entry) above

Substance: Ataxin-2 (ATXN2, pcDNA3.1 construct) (from UniProt Q99700 1-1313) (natural protein)
- fold increase of the AlphaLISA interaction signal [1]: 2 fold
- fold increase of the AlphaLISA interaction signal [2]: 22 fold
